{"source": "the supplement of paper PMC9170038", "data": [{"tested_on": "K4 kissing-loop RNA reporter", "assay": "apparent KD of K4 kissing-loop reporter; higher = weaker reporter binding", "conditions": "Eterna round: R107; input ligand: none", "method": "(§1)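 RNA-MaP round R107: designed RNA switches with theophylline, tryptophan, arginine or FMN aptamers are transcribed on-chip within common flanks. They are titrated with a labelled K4 kissing-loop RNA reporter in RNA-MaP buffer (100 mM Tris pH 7.5, 80 mM KCl, 4 mM MgCl2), without ligand or with the indicated ligand. Median apparent KD per design.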", "units": {"apparent KD of K4 kissing-loop reporter": "nM"}, "values": [{"sequence": "UACAAACGUAGUGAUGUUACGUACUCUGAUACCAGACAACUCUAAGUCCCUUGGCAGCAGUCAUUUUGCUUAUUAUUUUCUCAAA [JR_ExcTheophyA_Sub018]", "apparent KD of K4 kissing-loop reporter": 92}, {"sequence": "CGAGUGAUGUUCGAAGAGUUGUUAAGCGAUACCAGCUAGGAAACUGGCCCUUGGCAGCGUAAUAAGUAAAUAAAUAAAUGAUCAC [whbob_Ex_Theo_A_th63]", "apparent KD of K4 kissing-loop reporter": 442}, {"sequence": "UAAUAAAUUCCAGCGAUAUCGCUCUUCGAAGGAGCGGACGAAAGUCCAGGUAGGUCGCGAAGAGUGAUGUUCUUUGCGGCGCUGG [Omei KL Arginine A Exc A v4]", "apparent KD of K4 kissing-loop reporter": 262}, {"sequence": "UUAAUUCCGGUGGUGUGUAGAACACAGUUACGAGGACCGGUACGGCCGCCACUCGGAUGCACUUUCAGUGAUGUUGAAAGCAUCA [Same State Tryptophan A GF 1]", "apparent KD of K4 kissing-loop reporter": 643}, {"sequence": "UGACUGGACUGAAGGAGCGCUAAACUCCUAGUGAUGUUAGGAUAACGAGACAAAGUCUCGAAGCAGGUAGGUCGCAGUCUAGUCU", "apparent KD of K4 kissing-loop reporter": 117}, {"sequence": "UUAGAGAUCUCAGGAUAUCAGUGAUGUUGGUGUGCAGAUCUGAGAUAGAAUUCUAUCUCAGAUCAAUGAGAAGGGAGAUCUCAUU [AK5 Exc FMN B]", "apparent KD of K4 kissing-loop reporter": 152}, {"sequence": "AAGUAGCUCUCGGCCGCCACUCCUCAGUGAUGUUGAGAUAUUAACUGCCAAUUGGCGUAUUUAAAGAGGACCGGGAGAGCUACAA [AK2 SS Tryptophan B]", "apparent KD of K4 kissing-loop reporter": 476}, {"sequence": "UAAUUUAUGUCUUUAAUAUAAUAAUCAGAUACCAGUGAUUUAUGACACCCUUGGCAGCUGUAUAGAGUGAUGUUCUUAUGCUUAA [JR_ExcTheophyA_Sub011]", "apparent KD of K4 kissing-loop reporter": 278}, {"sequence": "GUUGAUCAUGGAAGGAGCGCCCAUUGUCGACACGAGUGAUGUUCGUGUCGUUGAUUACGAGGGCAGGUAGGUCGCCGUGUGCUUU [Rabele]", "apparent KD of K4 kissing-loop reporter": 124}, {"sequence": "GGCACUUUUGCUUGGAACCGUCAAGCUCUAUAGGAUAUGCCGAAAGGCAGAAGGAUGGACCUACAGAGUGAUGUUCUGCGUGCCU", "apparent KD of K4 kissing-loop reporter": 583}, {"sequence": "GAGAUAGAGGCGGCCGCCACUAGUGAUGUUAGUGAUGUUAGAUAGAGAAUAGAACAGAGGUAGGAUAGGACCGGGCCAGAUAGAG [whbob_SS_Tryp_B_w31]", "apparent KD of K4 kissing-loop reporter": 62.4}, {"sequence": "AGGCACGAGCAAGGAUAUCGAGUAGAGUGAUGUUCUGCCUGGGUUGGCGCGGAAGGGCCUUCCCAGCGAGAAGGUGCUCGUGCCU [#2 Same State - FMN A Attempt #10 (HarryS)]", "apparent KD of K4 kissing-loop reporter": 838}, {"sequence": "AUGUUGAGCGGAAGGAGCGGCUGAGCCAGUGAUGUUGGUUAAUCCAAGUGAUGUUGGAAAAGCCAGGUAGGUCGCCGCUUUACGU [whbob_SS_Arginine_B_2t144]", "apparent KD of K4 kissing-loop reporter": 1040}, {"sequence": "CGACACUCAGCGGCCGCCACUGAGCUAUAUUUUGCAGGUGCCCGAGUAAGUGAUGUUUACUUCGUCAGGACCGGGCUGGUUUCAA [theeternabot_sameState_KL_Trp_B_20]", "apparent KD of K4 kissing-loop reporter": 609}, {"sequence": "GCCGUAGAUUGAAGGAGCGUGGAACUAUGGCUUGAACAGUGAUGUUGUUUAUCUAGGUAGCCACAGGUAGGUCGCAAUCUACGGC", "apparent KD of K4 kissing-loop reporter": 234}, {"sequence": "UGACUGGAUGGAAGGAGCGCUAAACUCCUAGUGAUGUUAGGGACACGAGACAAAGUCUUGAGGCAGGUAGGUCGCCAUCUAGUCU [FiskerMod 8 - Jieux - Same State - Arginine B]", "apparent KD of K4 kissing-loop reporter": 251}, {"sequence": "UCGAGUUGACGAAGAGUCAACUCGUGUGAUACCAGUGACGAAAGUCACCCUUGGCAGCACUAUGCUAGUGAUGUUGGUAUUUAAG [#08 K4 Theophylline A Same State]", "apparent KD of K4 kissing-loop reporter": 179}, {"sequence": "AGAUUCGACACGGCCGCCACUCGUGGUGGAUUACCGAGUGUCGAAGUUGAGUGAUGUUCAAGUACGAGGACCGGGUGUUGAGUCU [KL-XTryp-B9 #analogue]", "apparent KD of K4 kissing-loop reporter": 198}, {"sequence": "AGGCACGAGCAAGGAUAUUGAGUAGAGUGAUGUUCUGCCUGGGUUGGCUCGCAAGAGCCUUCUCAGCGAGAAGGUGCUCGUGCCU [#2 Same State - FMN A Attempt #25 (HarryS)]", "apparent KD of K4 kissing-loop reporter": 674}, {"sequence": "UGUCGGUGAAGAAUGUUAGUGAUGUUGGCACGAGGACCGGUACGGCCGCCACUCGGUAAUCAUCGCAAUUAUCGAUGGCGUAGCC [theeternabot_exclusion_KL_Trp_A_3]", "apparent KD of K4 kissing-loop reporter": 147}, {"sequence": "AUUAAUUUCAGAGGAUAUCGUGAUUUUAUUUAAUUUAUUCAUUUGUGCAGUGAUGUUGCUAAUAUUCGAGAAGGCUGAUUUAUAA [whbob_Ex_FMNB__2th224]", "apparent KD of K4 kissing-loop reporter": 46.2}, {"sequence": "AUAACAAUCUGAAGGAGCGAGAAAGCAGUGAUGUUGCAAAGGCGAGUGAUGUUCGCAAUAACUCAGGUAGGUCGCAGAAACAAGA [Same State Arginine B]", "apparent KD of K4 kissing-loop reporter": 187}]}, {"tested_on": "K4 kissing-loop RNA reporter", "assay": "apparent KD of K4 kissing-loop reporter; higher = weaker reporter binding", "conditions": "Eterna round: R107; input ligand: theophylline 20 uM", "method": "as §1", "units": {"apparent KD of K4 kissing-loop reporter": "nM"}, "values": [{"sequence": "CCAUCGCUAUUCGAUACCAGUCAAAAUAAAAUAAUAAAUCUGCAAAGGAGUGAUGUUCCAGACCCUUGGCAGCGAAUAGUGAUGG [Theophylline B K4 2]", "apparent KD of K4 kissing-loop reporter": 709}, {"sequence": "GAGAUAGCGACGGCCGCCACUAGUGAUGUUAGUGCUGGUAGAUAGAUACUGGAACAGAAAUGACGUAGGACCGGGUCAGAUAGAG [#01 K4 Tryptophan B Exclusion]", "apparent KD of K4 kissing-loop reporter": 334}, {"sequence": "CCGCCAUCGUCAGAUACCAGGCUGAUGGCGGUAACCGCCAAGCGAGUGAUGUUCGCAUCAGUCCCUUGGCAGCUGACGAAGACUG [#16 K4 Theophylline B Same State]", "apparent KD of K4 kissing-loop reporter": 283}, {"sequence": "UAAUUUAUCGCAGGAUAUAGCCAUAAACCGGUCCUAAGGGACCUUCUGGGCAGUGAUGUUGCCCGGCUAGAAGGGCGAGUUCACC [Anenlagema]", "apparent KD of K4 kissing-loop reporter": 103}, {"sequence": "ACUUGAGCACAAAGCACACCAAGCAGUAGGUAGGAUAUCCGGCUUAGGAGAAGGACCAUGCAGUGAUGUUGCAUGCUCCUCCAUG [Onraordi]", "apparent KD of K4 kissing-loop reporter": 102}]}]}
